Source: patent publication US20260274983A1 (MODERNATX, published 2026)

Key:
[1] = biological target: T1, human BCMA (human, UniProt Q02223 1-184); assay: FACS binding to RPMI8226 cells, Fc format [upper panel RPMI8226]
T1 construct: whole, on cells; Human is stated only for CHO-HuBCMA; also called HuBCMA; B-cell maturation antigen
T1 sequence (looked up): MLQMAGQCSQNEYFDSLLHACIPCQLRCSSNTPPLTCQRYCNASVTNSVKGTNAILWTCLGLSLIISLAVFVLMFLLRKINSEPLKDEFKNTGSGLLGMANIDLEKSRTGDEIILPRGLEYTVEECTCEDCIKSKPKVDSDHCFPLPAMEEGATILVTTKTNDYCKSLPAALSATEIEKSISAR

[2] = biological target: T2, human FcRH5 (human, UniProt Q96RD9 16-977); assay: FACS binding to RPMI-huFCRH5 (HuFcRH5-RPMI8226) cells, VHH-His format
T2 construct: whole, on cells; also called huFcRH5; RPMI8226-huFcRH5
T2 sequence (looked up): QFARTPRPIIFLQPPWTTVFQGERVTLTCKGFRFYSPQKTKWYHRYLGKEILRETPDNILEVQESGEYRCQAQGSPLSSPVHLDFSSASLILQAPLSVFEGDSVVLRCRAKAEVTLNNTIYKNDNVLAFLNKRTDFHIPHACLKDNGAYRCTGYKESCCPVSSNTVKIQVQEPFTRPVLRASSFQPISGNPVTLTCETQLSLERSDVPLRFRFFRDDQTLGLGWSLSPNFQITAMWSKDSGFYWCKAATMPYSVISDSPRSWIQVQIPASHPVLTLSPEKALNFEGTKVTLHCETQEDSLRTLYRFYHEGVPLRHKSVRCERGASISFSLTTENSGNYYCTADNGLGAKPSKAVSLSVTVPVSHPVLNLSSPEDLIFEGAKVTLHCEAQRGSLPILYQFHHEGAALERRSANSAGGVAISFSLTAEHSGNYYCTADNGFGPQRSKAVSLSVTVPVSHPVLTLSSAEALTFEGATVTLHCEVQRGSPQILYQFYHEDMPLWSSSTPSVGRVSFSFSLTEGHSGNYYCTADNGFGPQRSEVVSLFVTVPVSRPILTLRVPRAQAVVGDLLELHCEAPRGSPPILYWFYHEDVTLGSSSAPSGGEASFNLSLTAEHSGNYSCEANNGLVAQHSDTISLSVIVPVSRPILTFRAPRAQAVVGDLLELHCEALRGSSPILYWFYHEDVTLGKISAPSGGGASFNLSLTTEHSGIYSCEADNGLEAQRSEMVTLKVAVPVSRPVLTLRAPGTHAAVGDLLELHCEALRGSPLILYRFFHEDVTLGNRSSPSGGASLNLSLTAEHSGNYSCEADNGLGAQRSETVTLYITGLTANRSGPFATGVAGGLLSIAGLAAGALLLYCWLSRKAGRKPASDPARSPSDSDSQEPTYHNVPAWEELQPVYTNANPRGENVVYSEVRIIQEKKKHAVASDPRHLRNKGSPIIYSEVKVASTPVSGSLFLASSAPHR

[3] = biological target: cynomolgus FcRH5 (cynomolgus); assay: FACS on RPMI8226-cyFcRH5 cells, VHH-His
[4] = biological target: T2, human FcRH5; assay: FACS on RPMI8226-huFcRH5 cells, VHH-His
[5] = biological target: T3, human GPRC5D (human, UniProt Q9NZD1 1-345); assay: FACS on CHO-HuGPRC5D cells, VHH-His
T3 construct: whole, on cells; Human is stated only for CHO-HuGPRC5D; also called HuGPRC5D; GPRC5D on CHO-HuGPRC5D cells

[6] = biological target: T3, human GPRC5D; assay: FACS on H929 cells, VHH-His
[7] = biological target: T3, human GPRC5D; assay: FACS on H929 cells
[8] = biological target: T3, human GPRC5D; assay: FACS on CHO-HuGPRC5D cells
[9] = biological target: T1, human BCMA; assay: FACS on RPMI8226 cells, Fc formatted
[10] = biological target: T4, CD38 (UniProt P28907 1-300, limits assumed); assay: FACS binding to RPMI8226 cells, VHH-His format
T4 construct: whole, on cells; also called CD38 on RPMI8226 cells; CD38 on H929 cells
T4 sequence (looked up): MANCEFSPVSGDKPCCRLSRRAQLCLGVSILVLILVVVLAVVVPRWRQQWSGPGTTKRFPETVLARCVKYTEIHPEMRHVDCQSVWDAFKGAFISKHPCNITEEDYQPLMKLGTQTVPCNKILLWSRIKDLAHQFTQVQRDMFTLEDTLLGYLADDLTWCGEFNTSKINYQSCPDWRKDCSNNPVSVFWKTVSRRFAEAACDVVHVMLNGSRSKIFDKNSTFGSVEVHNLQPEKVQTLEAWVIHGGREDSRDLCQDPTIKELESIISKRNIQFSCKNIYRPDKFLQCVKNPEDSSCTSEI

T3 sequence (Q9NZD1 whole entry): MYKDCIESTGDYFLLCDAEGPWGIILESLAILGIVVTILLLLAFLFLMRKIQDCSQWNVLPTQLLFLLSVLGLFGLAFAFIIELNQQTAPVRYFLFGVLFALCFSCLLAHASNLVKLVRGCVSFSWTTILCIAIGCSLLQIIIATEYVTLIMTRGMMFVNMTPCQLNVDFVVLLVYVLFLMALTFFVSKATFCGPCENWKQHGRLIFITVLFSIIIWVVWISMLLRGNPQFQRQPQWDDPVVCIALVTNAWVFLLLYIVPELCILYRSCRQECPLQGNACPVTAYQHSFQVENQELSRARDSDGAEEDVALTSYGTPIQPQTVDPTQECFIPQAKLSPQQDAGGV

B1: BCMA-VHH24 (Fc fusion)
chain: QVKLEESGGGLVQAGGSLRLSCQVSGRTFASFAMAWFRQAPGKEREFVAGISWSGGFTSYADSVKGRFTISRDNAKHTVYLQMNSLKTEDTAMYYCGEWGGFSLLGQGTQVTVSS
notes: not shown: Fc of the Fc formatted construct
[1]
  binding result: no binding (tested: about 500 nM (log 2.7))

B2: FcRH5-VHH3 (VHH)
VHH: QVQLVESGGGSVQAGGSLRLSCVDSGHTLSTYAMGWFRQAPGKEREFVAAIARDGGATYLSGSAQGRATISRDNAKSTVYLQMNNLKPDDTAVYYCAASSMFSTAKRDYSYWGQGTQVTVSSHHHHHH
[2]
  binding result: no binding (tested: 1000 nM)
[3]
  EC50: 97.2 nM

B3: BCMA-VHH21 (Fc fusion)
chain: QVKLEESGGGLVQAGGSLSLSCKASVRYFSTYAMGWFRQAPGKEREFVAAISWSGGSTYYADSVKGRFTISRDNAKNTVYLEMNSLKPEDTAVYYCAAPYGSSQNLEYDYWGQGTQVTVSS
notes: as for B1
[1]
  binding result: no binding (tested: about 500 nM (log 2.7))

B4: FcRH5-VHH1 (VHH)
VHH: QVQFVESGGGLVQAGGSLRLSCAASGITVSRNDMGWYRQAPGKQRELVAIMNRVGSTDTADSVKDRFTISRDNTKNTLYLQMNNLKPEDTAVYYCNALNTVITWPWGQGTQVTVSSHHHHHH
[4]
  EC50: 7.2 nM

B5: GPRC5D-VHH3 (VHH)
VHH: QVKLVESGGGLVQPGGSLRLSCVGSGIIFSASNLAWYRQALGKQRELVAGVTGGGSINYADSVKGRFTISRDNAKNTIYLQMNSLKPEDTAVYYCNARRSYSHWGQGTRVTVSS
[5]
  EC50: 4.23 nM
[6]
  EC50: 1.65 nM

B6: GPRC5D-VHH3-H9 (VHH)
VHH: QVQLVESGGGLVQPGGSLRLSCAASGIIFSASNLAWYRQAPGKQRELVAGVTGGGSINYADSVKGRFTISRDNAKNTIYLQMNSLRAEDTAVYYCNARRSYSHWGQGTLVTVSS
notes: Humanized variant of GPRC5D-VHH3
[7]
  EC50: 1.17 nM
[8]
  EC50: 19.8 nM

B7: BCMA-VHH5 (Fc fusion)
chain: QVKLEESGGGLVQAGGSLRLSCAASGRTFSDYTVAWFRQAPGSEREFVAASVWTDGKPYYVDSVRGRFTISRDNAKNTVWLQMDSLQPDDTAVYYCQALTGGSWILDYWGQGTPVTVSS
notes: as for B1
[9]
  EC50: 72.2 nM

B8: GPRC5D-VHH1 (VHH)
VHH: SVQLVESEGGLVQAGGSLRLSCVASGRTVSSYAMGWFRQAPGKEREFVAAISWSGRSTYYADSMKGRFTISRDNAKNTVYLQMNNLRPEDTAVYYCATSRAVIPGRDWNYYEYSGQGTQVTVSS
[5]
  EC50: 2.52 nM
[6]
  EC50: 13.2 nM

B9: GPRC5D-VHH1-H7 (VHH)
VHH: QVQLVESGGGLVQPGGSLRLSCAASGRTVSSYAMGWFRQAPGKEREFVSAISWSGRSTYYADSMKGRFTISRDNAKNTLYLQMNSLRAEDTAVYYCATSRAVIPGRDWNYYEYWGQGTLVTVSS
notes: Humanized variant of GPRC5D-VHH1
[8]
  EC50: 4.44 nM

B10: BCMA-VHH22 (Fc fusion)
chain: HVQLVDSGGGLVQAGGSLRLSCAASGFTFDDYAMSWVRQAPGKGLEWVSAISWNGGSTYYAESMKGRFTISRDNTKNTLYLQMNSLKPEDSAVYYCVPVSHSDSVCGSPYMDYWGKGTLVTVSS
notes: as for B1
[9]
  EC50: 49.2 nM

B11: CD38-VHH4 (VHH)
VHH: QVQLVESGGGLVQPGGSLRLSCAASGFSLDYYHIGWFRQAPGKEREGISCISSSDGYTLYADSVKGRFTISRDNAKNTVYLQMNSLKPEDTAVYYCAASPRRLACAGSLYPPLSADFSSWGQGTQVTVSS
[10]
  binding result: binds

B12: GPRC5D-VHH2 (VHH)
VHH: QVQLVESGGGLVQAGGSLRLSCAASGRTASAYVMGWFRQAPGKERDFVAGISGGAYYADSVKGRFTIARDNAKNTVYLQMNSLKPEDTAVYYCAAERGMRRLTESYQYDYWGQGTQVTVSS
[5]
  EC50: 0.68 nM
[6]
  EC50: 0.23 nM

B13: GPRC5D-VHH2-H5 (VHH)
VHH: QVQLVESGGGLVQPGGSLRLSCAASGRTASAYVMGWFRQAPGKEREFVAGISGGAYYADSVKGRFTISRDNSKNTVYLQMNSLRAEDTAVYYCAAERGMRRLTESYQYDYWGQGTLVTVSS
notes: Humanized variant of GPRC5D-VHH2
[7]
  EC50: 0.06 nM
[8]
  EC50: 0.3 nM
